Assay results published in patent publication US20150203577A1 (Chugai, published 2015).
Substitutions are numbered along the chain they refer to. Names may count otherwise.

T1: mouse FcγRII extracellular domain with C-terminal His tag (mouse, UniProt P08101 30-210)
T1 construct: Made on the basis of NCBI NP-034317.1; also called mFcγRII; mFcgRII
T1 sequence: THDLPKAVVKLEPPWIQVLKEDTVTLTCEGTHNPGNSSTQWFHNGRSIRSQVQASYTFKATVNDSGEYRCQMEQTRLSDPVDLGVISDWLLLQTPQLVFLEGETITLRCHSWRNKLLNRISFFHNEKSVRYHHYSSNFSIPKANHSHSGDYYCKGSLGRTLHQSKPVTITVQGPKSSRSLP

T2: mouse FcγRIII extracellular domain with C-terminal His tag (mouse, UniProt P08508 31-215)
T2 construct: Made on the basis of NCBI NP-034318.2; also called mFcγRIII; mFcgRIII
T2 chain: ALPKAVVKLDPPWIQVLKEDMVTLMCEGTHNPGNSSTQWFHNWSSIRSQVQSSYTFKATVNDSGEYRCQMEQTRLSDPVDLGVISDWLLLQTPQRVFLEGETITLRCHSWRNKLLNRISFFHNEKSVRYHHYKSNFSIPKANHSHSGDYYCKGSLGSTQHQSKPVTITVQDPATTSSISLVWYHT

T3: mouse FcγRII extracellular domain, C-terminally His-tagged (mouse, UniProt P08101 30-210)
T3 construct: the whole entry is named; also called mFcγRII; mFcgRII
T3 sequence: T1 sequence

T4: mouse FcγRIII extracellular domain, C-terminally His-tagged (mouse, UniProt P08508 31-215)
T4 construct: the whole entry is named; also called mFcγRIII; mFcgRIII
T4 chain: T2 chain

B1: H237-MB397/MRAL-k0 (antibody, mouse IgG1, kappa)
heavy: QVQLQESGPGLVKPSETLSLTCAVSGHSISHDHAWSWVRQPPGEGLEWIGFISYSGITNYNPSLQGRVTISRDNSKNTLYLQMNSLRAEDTAVYYCARSLARTTAMDYWGEGTLVTVSSAKTTPPSVYPLAPGSAAQTNSMVTLGCLVKGYFPEPVTVTWNSGSLSSGVHTFPAVLQSDLYTLSSSVTVPSSTWPSETVTCNVAHPASSTKVDKKIVPRDCGCKPCICETYEVEDVFIFPPKPKDVLTITLTPKVTCVVVDISKDDPEVQFSWFVDDVEVHTAQTQPREEQFNSTFRSVSELPIMHQDWLNGKEFKCRVNSAAFPAPIEKTISKTKGRPKAPQVYTIPPPKEQMAKDKVSLTCMITDFFPEDITVEWQWNGQPAENYKNTQPIMDTDGSYFVYSKLNVQKSNWEAGNTFTCSVLHEGLHNHHTEKSLSHSPGK
light: not shown
notes: mIgG1 with T230E/V231T/P232Y/S238E/S239D (EU); template T4; copies: 2 + 2
B2: H237-MB432/MRAL-k0 (antibody, mouse IgG1, kappa)
heavy: B1 heavy with E229Q, T230P, Y231N
light: not shown
notes: mIgG1 with T230Q/V231P/P232N/S238E/S239D (EU); template T9; copies: 2 + 2
B3: H237-MB389/MRAL-k0 (antibody, mouse IgG1, kappa)
heavy: B1 heavy with T230P, Y231A
light: not shown
notes: mIgG1 with T230E/V231P/P232A/S238E/S239D (EU); template T6; copies: 2 + 2
B4: H237-MB379/MRAL-k0 (antibody, mouse IgG1, kappa)
heavy: B1 heavy with T230V
light: not shown
notes: mIgG1 with T230E/P232Y/S238E/S239D (EU); template T5; copies: 2 + 2
B5: H237-MB387/MRAL-k0 (antibody, mouse IgG1, kappa)
heavy: B1 heavy with T230N
light: not shown
notes: mIgG1 with T230E/V231N/P232Y/S238E/S239D (EU); template T3; copies: 2 + 2
B6: H237-MB373/MRAL-k0 (antibody, mouse IgG1, kappa)
heavy: B1 heavy with T230A
light: not shown
notes: mIgG1 with T230E/V231A/P232Y/S238E/S239D (EU); template T1; copies: 2 + 2
B7: H237-MB425/MRAL-k0 (antibody, mouse IgG1, kappa)
heavy: B1 heavy with E229I, T230P, Y231A
light: not shown
notes: mIgG1 with T230I/V231P/P232A/S238E/S239D (EU); template T7; copies: 2 + 2
B8: H237-MB382/MRAL-k0 (antibody, mouse IgG1, kappa)
heavy: B1 heavy with T230D
light: not shown
notes: mIgG1 with T230E/V231D/P232Y/S238E/S239D (EU); template T2; copies: 2 + 2
B9: H237-MB390/MRAL-k0 (antibody, mouse IgG1, kappa)
heavy: B1 heavy with T230P, Y231N
light: not shown
notes: mIgG1 with T230E/V231P/P232N/S238E/S239D (EU); template T8; copies: 2 + 2
B10: H237-MB513/MRAL-k0 (antibody, mouse IgG1, kappa)
heavy: B1 heavy with T230P, Y231A, D235M
light: not shown
notes: copies: 2 + 2
B11: H237-MB515/MRAL-k0 (antibody, mouse IgG1, kappa)
heavy: B1 heavy with T230P, Y231N, D235M
light: not shown
notes: mIgG1 with T230E/V231P/P232N/S238E/S239M (EU); copies: 2 + 2
B12: H237-MB524/MRAL-k0 (antibody)
heavy: B1 heavy with T230P, Y231N, D235W
light: not shown
notes: copies: 2 + 2
B13: H237-MB476/MRAL-k0 (antibody, mouse IgG1, kappa)
heavy: B1 heavy with E229Q, T230P, Y231N, D235E
light: not shown
notes: Template; copies: 2 + 2
B14: H237-MB528/MRAL-k0 (antibody, mouse IgG1, kappa)
heavy: B1 heavy with E229Q, T230P, Y231N, D235E, S294L, A322D
light: not shown
notes: copies: 2 + 2
B15: H237-MB527/MRAL-k0 (antibody, mouse IgG1, kappa)
heavy: B1 heavy with E229Q, T230P, Y231N, D235E, S294L, N320D
light: not shown
notes: also called MG527; copies: 2 + 2
B16: H237-MB526/MRAL-k0 (antibody, mouse IgG1, kappa)
heavy: B1 heavy with E229Q, T230P, Y231N, D235E, S294L
light: not shown
notes: copies: 2 + 2

These binders were tested against T1, mouse FcγRII extracellular domain with … (assay: SPR Biacore T200).

Kd | relative mFcγRII-binding activity (mIgG1 = 1) | Binder
0.379 nM | 555 | B1
0.613 nM | 343 | B2
0.858 nM | 245 | B3
0.768 nM | 273 | B4
0.659 nM | 319 | B5
0.538 nM | 390 | B6
– | 194 | B7
0.655 nM | 321 | B8
0.403 nM | 522 | B9

Target: T2, mouse FcγRIII extracellular domain with …
Experiment: SPR Biacore T200

Kd | relative mFcγRIII-binding activity (mIgG1 = 1) | Binder
14.6 nM | 19.3 | B1
26.4 nM | 10.7 | B2
40.6 nM | 7 | B3
23.2 nM | 12.2 | B4
16.9 nM | 16.7 | B5
18.2 nM | 15.5 | B6
– | 5.5 | B7
23 nM | 12.3 | B8
23.7 nM | 11.9 | B9

Target: T1, mouse FcγRII extracellular domain with …
Experiment: SPR Biacore T200
Remark: another data set of the same source

relative mFcγRII-binding activity (mIgG1 = 1) | Binder
555 | B1
343 | B2
46.3 | B10
245 | B3
273 | B4
319 | B5
390 | B6
194 | B7
321 | B8
165 | B11
10 | B12
522 | B9

Target: T2, mouse FcγRIII extracellular domain with …
Experiment: SPR Biacore T200
Remark: another data set of the same source

relative mFcγRIII-binding activity (mIgG1 = 1) | Binder
19.3 | B1
10.7 | B2
0.6 | B10
7 | B3
12.2 | B4
16.7 | B5
15.5 | B6
5.5 | B7
12.3 | B8
1.7 | B11
0.3 | B12
11.9 | B9

Target: T1, mouse FcγRII extracellular domain with …
Experiment: SPR Biacore T200
Remark: another data set of the same source
Protocol: (§1) Each altered antibody was analyzed for its interaction with each Fcγ receptor prepared above using Biacore T100 (GE Healthcare Japan Corp.), Biacore T200 (GE Healthcare Japan Corp.), Biacore A100, or Biacore 4000. The running buffer used was HBS-EP+ (GE Healthcare Japan Corp.). The assay temperature was set to 25° C. The sensor chips used were chips prepared by immobilizing Protein L (ACTIGEN or BioVision) onto Series S Sensor Chip CM5 (GE Healthcare Japan Corp.) or Series S Sensor Chip CM4 (GE Healthcare Japan Corp.) by the amine coupling method.
(§2) In order to calculate the KD value of each altered antibody for FcγR, kinetic analysis was conducted according to the following method: first, the antibody of interest was captured onto any of these chips and allowed to interact with mFcγR diluted with a running buffer. For the obtained sensorgram, the assay results were globally fit into the 1:1 Langmuir binding model using Biacore Evaluation Software to calculate an association rate constant ka (L/mol/s) and a dissociation rate constant kd (1/s). From these values, the dissociation constant KD (mol/L) was calculated.

Kd | Binder
0.379 nM | B1
0.613 nM | B2
4.53 nM | B10
0.858 nM | B3
0.768 nM | B4
0.659 nM | B5
0.538 nM | B6
1.08 nM | B7
0.655 nM | B8
1.27 nM | B11
21 nM | B12
0.403 nM | B9

Target: T2, mouse FcγRIII extracellular domain with …
Experiment: SPR Biacore T200
Remark: another data set of the same source
Protocol: as §1, §2

Kd | Binder
14.6 nM | B1
26.4 nM | B2
509 nM | B10
40.6 nM | B3
23.2 nM | B4
16.9 nM | B5
18.2 nM | B6
51 nM | B7
23 nM | B8
171 nM | B11
837 nM | B12
23.7 nM | B9

Each binder was assayed against T3, mouse FcγRII extracellular domain, … (assay: SPR Biacore T200, KD ratio).
From the text: (§3) The antibody H chain variable region used was the variable region H237 (SEQ ID NO: 1) of the H chain VH3-IgG1 of the anti-IL-6 receptor antibody Fv4-IgG1 described in WO2009/125825. The antibody L chain commonly used was the L chain MRAL-k0 (SEQ ID NO: 2) of the anti-IL-6 receptor antibody tocilizumab. H237-MB476/MRAL-k0 and H237-MB515/MRAL-k0 were used as templates to introduce new alterations. These variants were expressed and purified by the method of Reference Example 1 and evaluated for their binding to mFcγRII and mFcγRIII by the method of Reference Example 2 using Biacore T200.
as §1, §2

relative mFcγRII-binding activity (mIgG1 = 1) | Binder
261 fold | B13
375 fold | B14
273 fold | B15
232 fold | B16

Target: T4, mouse FcγRIII extracellular domain, …
Experiment: SPR Biacore T200, KD ratio
From the text: as §3, §1, §2

relative mFcγRIII-binding activity (mIgG1 = 1) | Binder
2.6 fold | B13
14.6 fold | B14
5.5 fold | B15
8.5 fold | B16

Each binder was assayed against T1, mouse FcγRII extracellular domain with … (assay: SPR Biacore T200; KD mFcγRIII / KD mFcγRII).

I/A (mFcγRII selectivity) | relative I/A (mFcγRII selectivity) (mIgG1 = 1) | Binder
38.7 | 28.9 | B1
43.1 | 32.2 | B2
47.3 | 35.3 | B3
30.2 | 22.5 | B4
25.6 | 19.1 | B5
33.8 | 25.2 | B6
– | 35.2 | B7
35.1 | 26.2 | B8
59 | 44 | B9

These binders were tested against T3, mouse FcγRII extracellular domain, … (assay: SPR Biacore T200, KD ratio, template MB476).
From the text: as §3, §1, §2

relative mFcγRII-binding activity (template = 1) | Binder
1 fold | B13
1.44 fold | B14
1.05 fold | B15
0.89 fold | B16

Target: T4, mouse FcγRIII extracellular domain, …
Experiment: SPR Biacore T200, KD ratio, template MB476
From the text: as §3, §1, §2

relative mFcγRIII-binding activity (template = 1) | Binder
1 fold | B13
5.52 fold | B14
2.09 fold | B15
3.23 fold | B16
